Measured values published in patent US20190070248A1 (BIONTECH, published 2019).
Positions of bridges follow the written chain, without caps; N, C: chain ends. No end group written: not given here. *: point of attachment. Biotin = O=C1N[C@H]2[C@H](CS[C@H]2CCCCC(=O)*)N1

Columns and labels:
[1] = target: T1, TR66 antibody (CD3ε specific antibody, clone TR66); experiment: apparent KD, peptide ELISA, biotinylated peptide on streptavidin plate, TR66 titrated, two-site saturation fit
T1 construct: Whole antibody

[2] = target: T1, TR66 antibody (CD3ε specific antibody, …); experiment: peptide ELISA, apparent KD against the parental peptide

| Binder | Kd [1] | fold lower apparent KD than the parental peptide aCD3 C7C-4 [2] |
| --- | --- | --- |
| ACTRPGDPYCGGGSK(Biotin) (disulfide 2-10 (inferred)) [aCD3-04-009 (ACTRPGDPYC-GGGS-K(Bio))] | 167 nM |  |
| WCTRPGDPQCGGGSK(Biotin) (disulfide 2-10 (inferred)) [aCD3-04-006 (WCTRPGDPQC-GGGS-K(Bio))] | 226 nM |  |
| ACTRPDDPQCGGGSK(Biotin) (disulfide 2-10 (inferred)) [aCD3-04-002 (ACTRPDDPQC-GGGS-K(Bio))] | 78 nM | ~5 fold |
| ACTRPDDPECGGGSK(Biotin) (disulfide 2-10 (inferred), also called TR66 mimotope aCD3-04-013) [aCD3-04-013 (ACTRPDDPEC-GGGS-K(Bio))] | 4 nM | ~100 fold |
| ACTRPGDPQCGGGSK(Biotin) (disulfide 2-10 (inferred), On the microarrays the peptide was immobilized covalently through a reactive moiety, not through K(Bio); also called clone 4; parental peptide) [aCD3 C7C-4 (ACTRPGDPQC-GGGS-K(Bio))] | 370 nM |  |
| ACTRPDDPWCGGGSK(Biotin) (disulfide 2-10 (inferred)) [aCD3-04-014 (ACTRPDDPWC-GGGS-K(Bio))] | 111 nM |  |
| ACTRPGDPACGGGSK(Biotin) (disulfide 2-10 (inferred)) [aCD3-04-008 (ACTRPGDPAC-GGGS-K(Bio))] | 164 nM |  |
| ACTRPEDPQCGGGSK(Biotin) (disulfide 2-10 (inferred)) [aCD3-04-007 (ACTRPEDPQC-GGGS-K(Bio))] | 299 nM |  |
